Test results: paper doi:10.1101/2020.04.23.053322
Where two headings read alike, the source gives them in different places.

Tests used:
[1] = molecular target: ATF6-CFP (human ATF6 fused to mCerulean on the C-terminal side) (human) (UniProt P18850); test: FRET or BRET
[2] = molecular target: ATF6-CFP (human ATF6 fused to mCerulean on the C-terminal side) (human) (UniProt P18850); test: FRET or BRET; remark: listed apart in the source

Chain of UniProt P18850 (P18850 whole entry, the tested form may be a part): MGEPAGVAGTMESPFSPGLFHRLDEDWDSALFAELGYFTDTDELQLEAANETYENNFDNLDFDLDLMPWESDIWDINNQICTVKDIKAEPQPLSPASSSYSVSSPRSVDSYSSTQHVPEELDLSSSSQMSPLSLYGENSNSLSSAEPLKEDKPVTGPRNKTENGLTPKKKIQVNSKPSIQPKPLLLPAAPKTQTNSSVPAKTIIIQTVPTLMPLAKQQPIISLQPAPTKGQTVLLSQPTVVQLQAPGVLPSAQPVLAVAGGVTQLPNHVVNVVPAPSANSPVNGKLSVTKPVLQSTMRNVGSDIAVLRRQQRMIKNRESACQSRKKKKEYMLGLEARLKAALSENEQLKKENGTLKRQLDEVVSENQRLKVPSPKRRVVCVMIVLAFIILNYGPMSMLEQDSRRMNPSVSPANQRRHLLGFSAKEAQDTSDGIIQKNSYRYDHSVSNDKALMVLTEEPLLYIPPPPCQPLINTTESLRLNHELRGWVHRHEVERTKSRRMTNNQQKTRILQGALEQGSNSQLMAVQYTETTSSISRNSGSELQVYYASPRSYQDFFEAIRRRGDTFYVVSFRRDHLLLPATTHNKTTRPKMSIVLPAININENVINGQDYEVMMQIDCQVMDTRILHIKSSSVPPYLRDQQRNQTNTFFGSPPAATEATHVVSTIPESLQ

- FRET efficiency [1]: 11.4%
- FRET efficiency [2]: 11.7%
Substance: mVenus-tagged sorcin (YFP-SRI) (from UniProt P30626 1-198) (natural protein)
